Measurements as given in US10966923.
Blank lines part the entries; values can stand above or below the molecule they belong to.

Experiments:
VEGF = VEGF (UniProt P15692); experiment: VEGF incubated with particles, particulate spun out, free VEGF in the supernatant measured by ELISA
[1] = target: AB160 (nanoparticle of albumin-bound paclitaxel and bevacizumab, ratio about 10:4, average particle size 160 nm) (UniProt P02768); experiment: flow cytometry of particles stained with goat anti-mouse IgG and PE
[2] = target: Abraxane (albumin-bound paclitaxel) (UniProt P02768); experiment: flow cytometry of particles stained with goat anti-mouse IgG and PE; ABX alone as comparison
[3] = target: T1, Abraxane (albumin-bound paclitaxel) (UniProt P02768 25-609); experiment: VEGF incubated with particles, particulate spun out, free VEGF in the supernatant measured by ELISA
T1 construct: also called ABX; Paclitaxel Albumin-stabilized Nanoparticle Formulation
Protocol: The VEGF was incubated with the nanoparticles for 2 hours at room temperature. The suspension was spun at 6000 rpm for 15 minutes, supernatants were collected and free VEGF was measured by ELISA. Briefly, ELISA plates were coated with capture antibody overnight at 4° C. Plates were washed, blocked and standards and samples were added. After washing, detection antibody was added and plates were developed with substrate (R and D Systems, Minneapolis, Minn.). […] The concentration of unbound VEGF was determined with a standard curve from 0 to 2000 pg/ml.

% VEGF unbound (VEGF): < 10%
Molecule: AB160 (nanoparticle of albumin-bound paclitaxel and bevacizumab, ratio about 10:4, average particle size 160 nm) (from UniProt P02768 25-609)

% positive [1]: 41.2% | % positive [2]: 6.7%
Molecule: goat anti-mouse IgG (antibody)

binding result [3]: no binding (tested: 2000 pg/ml VEGF)
B1: VEGF (ligand, UniProt P15692-4 27-191, looked up)
chain: APMAEGGGQNHHEVVKFMDVYQRSYCHPIETLVDIFQEYPDEIEYIFKPSCVPLMRCGGCCNDEGLECVPTEESNITMQIMRIKPHQGQHIGEMSFLQHNKCECRPKKDRARQENPCGPCSERRKHLFVQDPQTCKCSCKNTDSRCKARQLELNERTCRCDKPRR
notes: Soluble VEGF
